# Results as given in patent US12180485B2, “Repressible control of gene expression” (TRUSTEES OF BOSTON UNIVERSITY, priority 2020, dated 2024).
# Key:
# mCherry [1] = test: Drug inhibited knockdown system (Cas13 OFF switch, dNS3/ANR domains), mCherry expression; format: cell-based; conditions: split Cas13d linked to dNS3 and ANR domains
# mammalian systems = conditions: toxicity in mammalian systems at working concentration; cited from earlier work
# CID domains = conditions: cited from earlier work
# mCherry [2] = test: Split Cas13 (559/560) or WTCas13 driven by inducible promoters (NFkB, CAGA12, AP1), mCherry knockdown; format: cell-based; conditions: NFkB promoter with TGFbeta; CAGA12 promoter with TNFalpha; AP1 promoter with PMA
# From the text: FIG. 13A-13E is a series of schematics and graphs showing the coupling of split Cas13 (559/560) expression to inducible promoters responsive to endogenous signals. Inducible promoters responsive to endogenous signals drove split Cas13 expression for the construction of AND logic gate. FIG. 13A is a schematic showing the transfection compositions of endogenous signal-responsive promoters (e.g., “short response elements” and “miniP”) driving split Cas13d's. […] FIG. 13E is a series of bar graphs showing that orthogonality among the 3 inducible promoters tested. In FIG. 13B-13D, the left-right order of the bars for each design is the same as the top-down order of the legend for each bar graph, and “NT-gRNA” is non-target gRNA. In FIG. 13E, the left-right order of the bars is the same as the top-down order of the legend for each bar graph.
# mCherry [3] = test: mCherry knockdown by LwaCas13a and PspCas13b, WT and GIB CID split sites; format: cell-based
# From the text: Cas13b was able to facilitate over 70% mCherry knockdown. […] Two additional mCherry-targeting crRNA sequences for LwaCas13a were identified; they both offered moderate mCherry knockdown (around 50% in populations highly expressing Cas13a).
# With the LwaCas13a and PspCas13b specific mCherry-targeting crRNAs, 12 split sites were screened in PspCas13b, and 11 split sites were screened in LwaCas13a sequences.
# Therefore, it is contemplated herein that the knockdown efficiency of split LwaCas13a can be brought up by optimized crRNA design. Moreover, without wishing to be bound by theory, with a more efficient crRNA, GIB-induced knockdown efficiency by splits 397/398, 488/489, 605/606, 786/787, or 826/827 could also be enhanced.
# NS3a/danoprevir complex = NS3a/danoprevir complex (Hepatitis C virus genotype 1a, UniProt P27958, T1100M/T1173A); conditions: cited from earlier work
# grazoprevir/NS3a complex = grazoprevir/NS3a complex (Hepatitis C virus genotype 1a, UniProt P27958, T1100M/T1173A); conditions: cited from earlier work
# asunaprevir-bound NS3a = asunaprevir-bound NS3a (Hepatitis C virus genotype 1a, UniProt P27958, T1100M/T1173A); conditions: cited from earlier work
# recombinase reporter = test: Split recombinases (Cre, Flp, PhiC, vCre) with tandem or single CaffVHH, recombinase reporters, caffeine induction; format: cell-based; conditions: 48 hours of 100 uM caffeine
Molecule,binding of NS3 in the presence of danoprevir (NS3a/danoprevir complex),binding of NS3 in the presence of grazoprevir (grazoprevir/NS3a complex),binding of NS3 in the presence of asunaprevir (asunaprevir-bound NS3a),also measured
CC(C)(C)OC(=O)N[C@H]1CCCCC/C=C\[C@@H]2C[C@@]2(C(=O)NS(=O)(=O)C2CC2)NC(=O)[C@@H]2C[C@@H](OC(=O)N3Cc4cccc(F)c4C3)CN2C1=O [Danoprevir],,,,inhibition of constitutive knockdown activity of the OFF switch (mCherry [1]): able to inhibit the constitutive knockdown activity
"C=C[C@@H]1C[C@]1(NC(=O)[C@@H]1C[C@@H]2CN1C(=O)[C@H](C(C)(C)C)NC(=O)O[C@@H]1C[C@H]1CCCCCc1nc3ccc(OC)cc3nc1O2)C(=O)NS(=O)(=O)C1CC1.O [Grazoprevir, reference compound]",,,,"inhibition of constitutive knockdown activity of the OFF switch (mCherry [1]): able to inhibit the constitutive knockdown activity; Toxicity* (mammalian systems): no; Kd (CID domains; ligand / CID dimerization domain, read-out: Dissociation constant (Kd)): 0.02 nM; Reversibility (CID domains; reversibility of the ligand-induced dimerization / action): yes"
TNFalpha,,,,mCherry knockdown by split Cas13d or WTCas13 expressed from inducible promoter (mCherry [2]): induced mCherry knockdown
"LwaCas13a: Cas13a from Leptotrichia wadei (protein, listed as Leptotrichia wadei) MKVTKVDGISHKKYIEEGKLVKSTSEENRTSERLSELLSIRLDIYIKNPDNASEEENRIRRENLKKFFSNKVLHLKDSVLYLKNRKEKNAVQDKNYSEEDISEYDLKNKNSFSVLKKILLNEDVNSEELEIFRKDVEAKLNKINSLKYSFEENKANYQKINENNVEKVGGKSKRNIIYDYYRESAKRNDYINNVQEAFDKLYKKEDIEKLFFLIENSKKHEKYKIREYYHKIIGRKNDKENFAKIIYEEIQNVNNIKELIEKIPDMSELKKSQVFYKYYLDKEELNDKNIKYAFCHFVEIEMSQLLKNYVYKRLSNISNDKIKRIFEYQNLKKLIENKLLNKLDTYVRNCGKYNYYLQVGEIATSDFIARNRQNEAFLRNIIGVSSVAYFSLRNILETENENGITGRMRGKTVKNNKGEEKYVSGEVDKIYNENKQNEVKENLKMFYSYDFNMDNKNEIEDFFANIDEAISSIRHGIVHFNLELEGKDIFAFKNIAPSEISKKMFQNEINEKKLKLKIFKQLNSANVFNYYEKDVIIKYLKNTKFNFVNKNIPFVPSFTKLYNKIEDLRNTLKFFWSVPKDKEEKDAQIYLLKNIYYGEFLNKFVKNSKVFFKITNEVIKINKQRNQKTGHYKYQKFENIEKTVPVEYLAIIQSREMINNQDKEEKNTYIDFIQQIFLKGFIDYLNKNNLKYIESNNNNDNNDIFSKIKIKKDNKEKYDKILKNYEKHNRNKEIPHEINEFVREIKLGKILKYTENLNMFYLILKLLNHKELTNLKGSLEKYQSANKEETFSDELELINLLNLDNNRVTEDFELEANEIGKFLDFNENKIKDRKELKKFDTNKIYFDGENIIKHRAFYNIKKYGMLNLLEKIADKAKYKISLKELKEYSNKKNEIEKNYTMQQNLHRKYARPKKDEKFNDEDYKEYEKAIGNIQKYTHLKNKVEFNELNLLQGLLLKILHRLVGYTSIWERDLRFRLKGEFPENHYIEEIFNFDNSKNVKYKSGQIVEKYINFYKELYKDNVEKRSIYSDKKVKKLKQEKKDLYIRNYIAHFNYIPHAEISLLEVLENLRKLLSYDRKLKNAIMKSIVDILKEYGFVATFKIGADKKIEIQTLESEKIVHLKNLKKKKLMTDRNSEELCELVKVMFEYKALE",,,,"mCherry knockdown compared to no crRNA control group (mCherry [3]; position-matched LwaCas13a crRNA): did not achieve mCh knockdown; mCherry knockdown (mCherry [3]; two additional mCherry-targeting crRNA sequences, populations highly expressing Cas13a): around 50%"
"G3: reader domain, SEQ ID NO: 168 (protein) DIEKLCKKAEEEAKEAQEKADELRQRHPDSQAAEDAEDLANEAEAAVLAACSLAQEHPNADIAKLCIKAASEAAEAASKAAELAQRHPDSQAARDAIKLASQAARAVILAIMLAAENPNADIAKLCIKAASEAAEAASKAAELAQRHPDSQAARDAIKLASQAAEAVERAIWLAAENPNADIAKKCIKAASEAAEEASKAAEEAQRHPDSQKARDEIKEASQKAEEVKERCKS",no binding,moderate binding,some binding,
"Flp split 374/375: split Flp, aa 1-374 / 375-423 of SEQ ID NO: 60, with tandem or single CaffVHH (protein, listed as Saccharomyces cerevisiae, split with 375-423; CaffVHH fusions) MSQFDILCKTPPKVLVRQFVERFERPSGEKIASCAAELTYLCWMITHNGTAIKRATFMSYNTIISNSLSFDIVNKSLQFKYKTQKATILEASLKKLIPAWEFTIIPYNGQKHQSDITDIVSSLQLQFESSEEADKGNSHSKKMLKALLSEGESIWEITEKILNSFEYTSRFTKTKTLYQFLFLATFINCGRFSDIKNVDPKSFKLVQNKYLGVIIQCLVTETKTSVSRHIYFFSARGRIDPLVYLDEFLRNSEPVLKRVNRTGNSSSNKQEYQLLKDNLVRSYNKALKKNAPYPIFAIKNGPKSHIGRHLMTSFLSMKGLTELTNVVGNWSDKRASAVARTTYTHQITAIPDHYFALVSRYYAYDPISKEMIAL",,,,"induced recombination, tandem CaffVHH compared to single CaffVHH (recombinase reporter): comparable induced recombination, if not better"
"D5: reader domain, SEQ ID NO: 166 (protein) SSDEEEARELIERAKEAAERAQEAAERTGDPRVRELARELKRLAQEAAEEVKRDPSSSDVNEALKLIVEAIEAAVDALEAAERTGDPEVRELARELVRLAVEAAEEVQRNPSSSDVNEALLTIVIAIEAAVNALEAAERTGDPEVRELARELVRLAVEAAEEVQRNPSSREVNIALWKIVLAIQEAVESLREAEESGDPEKREKARERVREAVERAEEVQRDPSGWLNH",moderate binding,moderate binding,some binding,
"DNCR1: danoprevir/NS3 complex reader, SEQ ID NO: 167 (protein) SSDEEEARELIERAKEAAERAQEAAERTGDPRVRELARELKRLAQEAAEEVKRDPSSSDVNEALKLIVEAIEAAVDALEAAERTGDPEVRELARELVRLAVEAAEEVQRNPSSSDVNEALLSIVIAIEAAVHALEAAERTGDPEVRELARELVRLAVEAAEEVQRNPSSREVEHALMKIVLAIYEAEESLREAEESGDPEKREKARERVREAVERAEEVQRDPSGWLNH",high binding,minimal binding,minimal binding,
